Laboratory results taken from patent publication US20260191954A1, “COMPOSITIONS AND METHODS FOR NEOADJUVANT TREATMENT IN CANCER” (INNATE PHARMA, priority 2022, published 2026).
“Also recorded” adds a separate entry of the source.

T1: human CD39, membrane-bound, as expressed on cells (human, UniProt P49961 1-510)
T1 construct: On OAW42 cells, on monocytes and B cells of patients, in patients' tumour tissue, and in tissues of human CD39 knock-in mice; also called mCD39
T1 sequence: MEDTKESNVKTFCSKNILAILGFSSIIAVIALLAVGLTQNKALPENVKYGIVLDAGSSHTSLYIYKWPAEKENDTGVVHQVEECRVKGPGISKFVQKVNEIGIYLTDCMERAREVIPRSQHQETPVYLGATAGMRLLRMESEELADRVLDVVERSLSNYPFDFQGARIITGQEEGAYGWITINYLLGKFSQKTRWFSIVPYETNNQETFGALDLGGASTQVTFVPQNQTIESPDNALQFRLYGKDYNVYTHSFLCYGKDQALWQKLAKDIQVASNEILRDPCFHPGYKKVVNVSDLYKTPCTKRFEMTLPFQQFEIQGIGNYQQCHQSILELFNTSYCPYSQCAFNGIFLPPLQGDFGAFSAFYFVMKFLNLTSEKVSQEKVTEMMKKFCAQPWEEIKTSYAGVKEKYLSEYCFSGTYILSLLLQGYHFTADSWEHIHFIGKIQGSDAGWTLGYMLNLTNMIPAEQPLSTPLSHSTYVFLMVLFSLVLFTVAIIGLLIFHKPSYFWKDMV

T2: CD39 enzymatic activity (Homo sapiens, UniProt P49961)
T2 construct: genetically modified to express human CD39 in place of its murine counterpart mouse CD39; from tissue; host or cells: tissues (MCA205 tumours) of huCD39KI mice treated with moIPH5201
T2 sequence (P49961 1-510): T1 sequence

B1: IPH5201 (humanized anti-CD39 antibody having the respective heavy and light chain amino acid sequences of SEQ ID NOS: 10 and 11) (antibody, human IgG1, kappa, V domains shown)
VH: QVQLVQSGAEVKKPGASVKVSCKASGYTFTDYNMHWVRQAPGQRLEWIGYIVPLNGGSTFNQKFKGRATITVDTSARTAYMELSSLRSEDTAVYYCARGGTRFAYWGQGTLVTVSS
VL: DIVMTQSPDSLAVSLGERATINCRASESVDNFGVSFMYWFQQKPGQPPKLLIYGASNQGSGVPDRFSGSGSGTDFTLTISSLQAEDVAVYYCQQTKEVPYTFGGGTKVEIKR
B2: molPH5201: antibody having the VH and VL of SEQ ID NOS: 8 and 9 and murine constant domains, Fc substituted to eliminate mouse Fcγ receptor binding (antibody, V domains shown)
VH: B1 VH
VL: DIVMTQSPDSLAVSLGERATINCRASESVDNFGVSFMYWFQQKPGQPPKLLIYGASNQGSGVPDRFSGSGSGTDFTLTISSLQAEDVAVYYCQQTKEVPYTFGGGTKVEIK
modifications: murine constant domains, Fc-silenced

What was measured:
[1] = molecular target: T1, human CD39, membrane-bound, as …; test: indirect response PD model (inhibition on Kin) fitted to free mCD39 on monocytes of treated patients; flow cytometry, free CD39 detected with a labelled antibody having the VH and VL of IPH5201
From the text: PK/PD modelling and simulation were used to guide selection of doses. IPH5201 PK data from 45 patients and PD data of free membrane CD39 (mCD39) occupancy on monocytes from 43 patients were available. A population PK model was developed with IPH5201 PK best described as a 2-compartment model with parallel linear and saturatable kinetics.
An indirect response PD model (inhibition on Kᵢₙ) was then built to describe the relationship between IPH5201 concentrations and free mCD39 on monocytes (FIG. 10). The model accurately predicted CD39free+ of monocytes (%). […] The final indirect response model was then used for parametric simulation.
To assess free CD39 on monocytes and B cells, blood samples are spiked with an antibody having the VH and VL of IPH5201 and a mouse Fc domain and labelled with a fluorochrome. A second non-competing anti-CD39 monoclonal antibody labelled with a distinct fluorochrome is used to bind to a site on CD39 distinct from the capture antibody. CD14, CD19 and CD45 are detected by incubation with anti-CD14, CD19 and CD45 monoclonal antibodies each labelled with a distinct fluorochrome. Binding is detected by flow cytometry.

[2] = tested on: adenosine in MCA205 tumors; test: Intratumoral adenosine in MCA205 tumors in huCD39KI mice (LC-MS/MS); type: in vivo, human CD39 knock-in (huCD39KI) mice; details: molPH5201 20 mg/kg on day 7 and 14; tumors harvested day 16; vs isotype control; FIG. 4
Protocol: Expression of human CD39 in MCA205 tumors engrafted in human CD39 knock-in (huCD39KI) mice was assessed, followed by measure of intratumoral levels of adenosine after in vivo treatment with molPH5201, an antibody having the VH and VL or SEQ ID NO NOS: 8 and 9 and murine constant domains including an Fc domain with amino acid substitutions to eliminate binding to mouse Fcγ receptors, in order to evaluate the reduction of adenosine levels in tumors by molPH5201 can reduce in vivo.
(§1) Human CD39 expression on MCA205 tumors harvested on day 16 post engraftment was evaluated by IHC with EPR20627 clone from Abcam B&C. MCA205 tumors were engrafted in huCD39KI mice. On day 7 and 14 post tumor implantation, they were treated with molPH5201 (20 mg/kg) or isotype control. On day 16, tumors were harvested. Results are shown in FIG. 4, left hand panel, showing that a significant percentage of cells express CD39.
Quantification of adenosine in the harvested MCA205 tumors was performed using pre-column derivatization and liquid chromatography-mass spectrometry (LC-MS/MS) as described by Goodwin et al. 2019 Anal Biochem 568:78-88.

[3] = molecular target: T2, CD39 enzymatic activity; test: Wachstein-Meisel CD39 enzyme assay on tissues of treated mice; type: in vivo, huCD39KI mice; details: tissues from molPH5201-treated animals; brown color indicates enzyme activity
Protocol: as §1
Blockade of CD39 enzymatic activity was determined using the Wachstein-Meisel CD39 enzyme assay (brown color indicates enzyme activity).

[4] = tested on: MC38 cancer cell line; test: MC38 tumor growth in huCD39KI mice (gemcitabine +/- anti-PD-L1 +/- molPH5201); type: in vivo, human CD39 knock-in (huCD39KI) mice
Protocol: In vivo experiments were performed in human CD39 knock-in (huCD39KI) mice, genetically modified to express human CD39 in place of its murine counterpart mouse CD39. These mice were sub-cutaneously (s.c.) engrafted with the MC38 cancer cell line. Mice bearing established tumors were dosed with isotype control (IC) antibodies, anti-human CD39 antibody (molPH5201, described above), gemcitabine chemotherapy and anti-mouse PD-L1 antibody (an antibody that binds murine PD-L1 having an Fc domain with amino acid substitutions to eliminate binding to mouse Fcγ receptors.
Male and female huCD39KI mice were engrafted subcutaneously (s.c.) with 1×10^6 MC38 cancer cells. Treatments were initiated after mouse randomization. Mice were treated twice a week for two weeks with gemcitabine (25 mg/kg) or PBS (at day 8, 11, 15 and 18 after cell engraftment) and once a week for four weeks with either anti-human CD39 antibody (molPH5201) or the corresponding isotype control (IC) antibody (400 μg/mouse).
Randomization of mice into four groups was performed on day 7 post tumor cell engraftment, at a mean tumor volume of 72 mm^3±27 mm^3 with individual tumor volumes comprised between 37 and 130 mm^3.
(§2) Male and female huCD39KI mice were engrafted s.c. with 1×10^6 MC38. Treatments were initiated after mouse randomization. Mice were treated twice a week for two weeks with gemcitabine (25 mg/kg) or PBS, twice a week for three weeks with either anti-mouse PD-L1 antibody or the corresponding IC antibody (200 μg/mouse) and once a week for four or five weeks depending on the experiment with either anti-human CD39 antibody (molPH5201) or the corresponding IC antibody (400 μg/mouse). Mouse randomization into five groups was performed on day 7 post tumor cell engraftment at a mean tumor volume of 62 mm^3±23 mm^3 with individual tumor volumes comprised between 31 and 117 mm^3.
as §2, with “As in Experiment 1, male” for “Male”, “64” for “62”, “115” for “117”
as §2, with “As in Experiments 1 and 2, male” for “Male”, “engraftment,” for “engraftment”, “74 mm^3±21” for “62 mm^3±23”, “40” for “31”, “121” for “117”
The three experiments were pooled and results are shown in FIG. 9, showing Tumor growth of MC38 tumor in huCD39KI mice post treatment with gemcitabine+/−anti-PD-L1+/−molPH5201. MC38 tumor-bearing huCD39KI mice were randomized on day 7 and then treated as indicated with 25 mg/kg ip of gemcitabine or PBS, 200 μg ip of anti-mouse PD-L1 antibody or corresponding isotype control antibody and with 400 μg iv of molPH5201 or corresponding IC antibody. Graphs show tumor growth in each individual (n=31/group). CR: Complete Response.

| IC50 [1] [µg/mL] | Molecule | intratumoral adenosine compared to control [2] | CD39 enzymatic activity in tissues [3] | number of complete response when combined with gemcitabine, in comparison to gemcitabine alone ([4]; Experiment 1 (FIG. 6)) | improvement of anti-tumor effect over the comparator named in the value ([4]; Experiment 1 (FIG. 6), triple vs gemcitabine alone p<0.05 when control group was excluded) | improvement of anti-tumor efficacy over the comparator named in the value ([4]; Experiment 2 (FIG. 7), difference marginally significant, p<0.1, control group excluded) | number of complete response (CR) on combination ([4]; Experiment 3 (FIG. 8)) | improvement of anti-tumor effect over the comparator named in the value ([4]; Experiment 3 (FIG. 8), triple vs gemcitabine alone marginally significant p<0.1, control group excluded) | improvement of the anti-tumor efficacy of gemcitabine ([4]; gemcitabine +/- molPH5201 experiment (FIG. 5)) | tumor growth compared to the control group ([4]; gemcitabine +/- molPH5201 experiment (FIG. 5), gemcitabine 25 mg/kg, molPH5201 400 μg/mouse, p<0.001 where significant) | improvement of anti-tumor efficacy over the comparator named in the value ([4]; pooled analysis of three experiments (FIG. 9), n=31/group, p<0.05 where improved, linear-mixed effect model) |
| --- | --- | --- | --- | --- | --- | --- | --- | --- | --- | --- | --- |
| 2.44 | B1 | – | – | – | – | – | – | – | – | – | – |
| – | B2 | less intratumoral adenosine | decreased CD39 enzymatic activity | increased the number of complete response | Neither anti-PD-L1 nor molPH5201 improved the anti-tumor effect of gemcitabine; also recorded: did not statistically significantly improve gemcitabine+anti-PD-L1 efficacy | tended to improve the anti-tumor efficacy of the combination gemcitabine+anti-PD-L1 | did not increase the number of CR | Neither anti-PD-L1 nor molPH5201 improved the anti-tumor effect of gemcitabine; also recorded: did not statistically significantly improve gemcitabine+anti-PD-L1 efficacy | did not improve the anti-tumor efficacy of gemcitabine | did not modify tumor growth | neither anti-PD-L1 nor molPH5201 improved the anti-tumor effect of gemcitabine; also recorded: improved the anti-tumor efficacy of the gemcitabine+anti-PD-L1 combination |
